Data set [1] concerns the molecule itself. The data set is described as follows: SEC; 100 micrograms of protein on a superose-6 column (HR10/30); 20 mM Tris-HCl pH 7.5, 150 mM NaCl, 10% glycerol; 22°C, 0.2 ml/min; A280; size markers thyroglobulin, ferritin, albumin, ovalbumin.
For a further data set, the target named is T1, MCM G218A (Methanothermobacter thermautotrophicus, UniProt O27798 1-666, G218A).
T1 sequence: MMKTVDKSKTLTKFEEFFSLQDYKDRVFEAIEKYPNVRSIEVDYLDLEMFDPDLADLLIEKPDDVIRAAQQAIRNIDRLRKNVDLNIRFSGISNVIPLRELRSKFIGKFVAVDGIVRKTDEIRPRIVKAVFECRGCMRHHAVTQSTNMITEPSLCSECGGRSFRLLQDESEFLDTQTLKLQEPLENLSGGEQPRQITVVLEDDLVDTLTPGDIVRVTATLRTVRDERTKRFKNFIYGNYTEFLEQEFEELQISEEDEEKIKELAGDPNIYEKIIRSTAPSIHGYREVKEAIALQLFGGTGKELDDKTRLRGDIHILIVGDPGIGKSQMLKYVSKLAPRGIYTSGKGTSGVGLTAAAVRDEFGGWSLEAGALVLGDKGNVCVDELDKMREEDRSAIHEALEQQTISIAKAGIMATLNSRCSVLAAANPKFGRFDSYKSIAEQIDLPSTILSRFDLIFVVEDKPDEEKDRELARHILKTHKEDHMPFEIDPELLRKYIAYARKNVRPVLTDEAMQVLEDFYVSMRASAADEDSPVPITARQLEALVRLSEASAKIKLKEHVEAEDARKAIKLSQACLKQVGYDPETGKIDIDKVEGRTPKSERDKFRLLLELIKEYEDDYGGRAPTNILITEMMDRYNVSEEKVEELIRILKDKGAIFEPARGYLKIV
The experiment in a line: filter binding; 10 mM Mg2+, no ATP; 25 mM Hepes-NaOH pH 7.5, 2 mM DTT, 10 mM MgCl2, 100 ug/ml BSA, 50 fmol 32P-DNA in 20 ul, 10/30/90 nM MCM monomer (25 nM for the ATP test), 60 C, 10 min; nitrocellulose filter washed with 20 mM Tris-HCl pH 7.5. Particulars: protein: recombinant; tags: C-terminal His6; chain copies: 6; label: 32P (T4 PNK, 5' end); blunt.

The target in the next data set is T2, MCM G211A (Methanothermobacter thermautotrophicus, UniProt O27798 1-666, G211A).
T2 sequence: T1 sequence with G211A, A218G
The description is as above. Particulars: protein: recombinant; tags: C-terminal His6; chain copies: 6; label: 32P (T4 PNK, 5' end); blunt.

Another data set addresses T3, MCM P210G (Methanothermobacter thermautotrophicus, UniProt O27798 1-666, P210G).
T3 sequence: T1 sequence with P210G, A218G
The description is as above. Particulars: protein: recombinant; tags: C-terminal His6; chain copies: 6; label: 32P (T4 PNK, 5' end); blunt.

For the next data set, the target named is T4, MCM Q176A (Methanothermobacter thermautotrophicus, UniProt O27798 1-666, Q176A).
T4 sequence: T1 sequence with Q176A, A218G
The data set is described as above. Particulars: protein: recombinant; tags: C-terminal His6; chain copies: 6; label: 32P (T4 PNK, 5' end); blunt.

The results in this text go back to PMC2997501, “Different Residues on the Surface of the Methanothermobacter thermautotrophicus MCM Helicase Interact with Single- and Double-Stranded DNA” (Archaea, 2010).

Numbering of substitutions follows the chain as printed. Names and notes keep the numbering of the source.

B1: Methanothermobacter thermautotrophicus MCM protein, wild-type (enzyme, UniProt O27798 1-666, looked up)
chain: T1 sequence with A218G
notes: MCM helicase of Methanothermobacter thermautotrophicus, full-length enzyme, cloned in pET-21a (NdeI/XhoI); the text speaks of hexamers, dodecamers and filaments in equilibrium (cited work); also called wild-type enzyme; minichromosome maintenance helicase; source: E. coli DE3 codon plus cells, purified on a Ni-column
With B1, in data set [1], the binding result was “binds”.

B2: Methanothermobacter thermautotrophicus MCM protein, D212N mutant (enzyme, UniProt O27798 1-666, looked up)
chain: T1 sequence with D212N, A218G
notes: MCM helicase of Methanothermobacter thermautotrophicus, derivative of the full-length enzyme; source: E. coli DE3 codon plus cells, purified on a Ni-column
In the case of B2, the binding result in data set [1] is on record as “binds”.

B3: Methanothermobacter thermautotrophicus MCM protein, G218A mutant (enzyme, UniProt O27798 1-666, looked up)
chain: T1 sequence
notes: as for B2
In the case of B3, in data set [1], the binding result is listed as “binds”.

B4: Methanothermobacter thermautotrophicus MCM protein, PG210,211GA double mutant (enzyme, UniProt O27798 1-666, looked up)
chain: T1 sequence with P210G, G211A, A218G
notes: as for B2
For B4, the binding result in data set [1] was “binds”.

B5: Methanothermobacter thermautotrophicus MCM protein, Q176A mutant (enzyme, UniProt O27798 1-666, looked up)
chain: T1 sequence with Q176A, A218G
notes: as for B2
As for B5, in data set [1], the binding result was “binds”.

B6: Methanothermobacter thermautotrophicus MCM protein, P210G mutant (enzyme, UniProt O27798 1-666, looked up)
chain: T1 sequence with P210G, A218G
notes: as for B2
Consider B6, for which the binding result in data set [1] is “binds”.

B7: Methanothermobacter thermautotrophicus MCM protein, G211A mutant (enzyme, UniProt O27798 1-666, looked up)
chain: T1 sequence with G211A, A218G
notes: as for B2
On to B7, for which the binding result in data set [1] is recorded as “binds”.

B8: Methanothermobacter thermautotrophicus MCM protein, V214A mutant (enzyme, UniProt O27798 1-666, looked up)
chain: T1 sequence with V214A, A218G
notes: as for B2
Consider B8, for which the binding result in data set [1] is “binds”.

B9: 49-mer dsDNA (dsDNA)
DNA 1: GCAGATAACAGTTGTCCTGGAGAACGACCTGGTTGACACCCTCACACCC
DNA 2: GGGTGTGAGGGTGTCAACCAGGTCGTTCTCCAGGACAACTGTTATCTGC
Regarding B9, the binding signal in the data set with MCM G218A is roughly 25 % reduction vs wild-type; with MCM G211A, roughly 50 % reduction vs wild-type; with MCM P210G, roughly 50 % reduction vs wild-type; in the data set with MCM Q176A, roughly 50 % reduction vs wild-type.
